Source: publication PMC10338669

Biological target: aSyn-MFP (alpha-synuclein with C-terminal MFP/mMaroon1, single-fusion acceptor) (UniProt P37840)
Assay: FRET or BRET

FRET efficiency E (Ex 473 nm): 0.266
FRET efficiency E (Ex 532 nm): 0.229
Substance: O-aSyn (alpha-synuclein with N-terminal OFP/mCyRFP1, single-fusion donor) (from UniProt P37840 1-140) (natural protein)
